Target: T1, soluble human CD3 epsilon chain (human, UniProt P07766 23-126)
T1 construct: also called CD3ε
Assay: SPR

T1 sequence (P07766 23-126 limits assumed): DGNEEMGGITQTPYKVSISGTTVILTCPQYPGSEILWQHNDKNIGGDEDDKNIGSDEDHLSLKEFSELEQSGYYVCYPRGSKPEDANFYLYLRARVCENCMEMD

B1: TR01H040-E22Hh/none-Hi-Kn010G3/L0200-k0 (antibody, V domains shown)
VH: QVQLVESGGGLVQPGRSLRLSCAASGFTFSNAWMHWVRQAPGKGLEWVAQIKDKSQNYATYYAESVKGRFTISRADSKNSIYLQMNSLKTEDTAVYYCRYVHYSASYGVDAWGQGTTVTVSS
VL: DIVMTQSPLSLPVTPGEPASISCRPSQSPVHSNRNTYLHWYQQKPGQAPRLLIYKVSNRFSGVPDRFSGSGSGTDFTLKISRVEAEDVGVYYCGQGTQVPYTFGQGTKLEIK
notes: one-arm
Question: With B1 as the binder, how does the Kd read?
Answer: 28.7 nM

B2: TR01H040-E22Hh/none-Hi-Kn010G3/L0214-k0 (antibody, V domains shown)
VH: QVQLVESGGGLVQPGRSLRLSCAASGFTFSNAWMHWVRQAPGKGLEWVAQIKDKSQNYATYYAESVKGRFTISRADSKNSIYLQMNSLKTEDTAVYYCRYVHYSASYGVDAWGQGTTVTVSS
VL: DIVMTQSPLSLPVTPGEPASISCRSSQPPVHSNRNTYLHWYQQKPGQAPRLLIYKVSNRFRGVPDRFSGSGSGTDFTLKISRVEAEDVGVYYCGQGTQVPYTFGQGTKLEIK
notes: one-arm
Question: How did the Kd turn out when B2 was run?
Answer: 20.2 nM

B3: TR01H040-E22Hh/none-Hi-Kn010G3/L0217-k0 (antibody, V domains shown)
VH: QVQLVESGGGLVQPGRSLRLSCAASGFTFSNAWMHWVRQAPGKGLEWVAQIKDKSQNYATYYAESVKGRFTISRADSKNSIYLQMNSLKTEDTAVYYCRYVHYSASYGVDAWGQGTTVTVSS
VL: DIVMTQSPLSLPVTPGEPASISCRPSQSLVHSNRNTYLHWYQQKPGQAPRLLIYKVSNRFRGVPDRFSGSGSGTDFTLKISRVEAEDVGVYYCGQGTQVPYTFGQGTKLEIK
notes: one-arm
Question: B3 was tested. Which Kd did it give?
Answer: 20.7 nM

B4: TR01H040-E22Hh/none-Hi-Kn010G3/L0202-k0 (antibody, V domains shown)
VH: QVQLVESGGGLVQPGRSLRLSCAASGFTFSNAWMHWVRQAPGKGLEWVAQIKDKSQNYATYYAESVKGRFTISRADSKNSIYLQMNSLKTEDTAVYYCRYVHYSASYGVDAWGQGTTVTVSS
VL: DIVMTQSPLSLPVTPGEPASISCRSSQSPVHSNRWTYLHWYQQKPGQAPRLLIYKVSNRFSGVPDRFSGSGSGTDFTLKISRVEAEDVGVYYCGQGTQVPYTFGQGTKLEIK
notes: one-arm
Question: With B4 as the binder, how does the Kd read?
Answer: 61.9 nM

B5: TR01H040-E22Hh/none-Hi-Kn010G3/L0215-k0 (antibody, V domains shown)
VH: QVQLVESGGGLVQPGRSLRLSCAASGFTFSNAWMHWVRQAPGKGLEWVAQIKDKSQNYATYYAESVKGRFTISRADSKNSIYLQMNSLKTEDTAVYYCRYVHYSASYGVDAWGQGTTVTVSS
VL: DIVMTQSPLSLPVTPGEPASISCRSSQPPVHSNRNTYIHWYQQKPGQAPRLLIYKVSNRFSGVPDRFSGSGSGTDFTLKISRVEAEDVGVYYCGQGTQVPYTFGQGTKLEIK
notes: one-arm
Question: B5 was tested. Which Kd did it give?
Answer: 33.7 nM

B6: TR01H040-E22Hh/none-Hi-Kn010G3/L0223-k0 (antibody, V domains shown)
VH: QVQLVESGGGLVQPGRSLRLSCAASGFTFSNAWMHWVRQAPGKGLEWVAQIKDKSQNYATYYAESVKGRFTISRADSKNSIYLQMNSLKTEDTAVYYCRYVHYSASYGVDAWGQGTTVTVSS
VL: DIVMTQSPLSLPVTPGEPASISCRSSQSPVHSNRNTYIHWYQQKPGQAPRLLIYKVSNRLSGVPDRFSGSGSGTDFTLKISRVEAEDVGVYYCYQGTQVPYTFGQGTKLEIK
notes: one-arm
Question: For B6, which Kd is on record?
Answer: 8.15 nM

B7: TR01H040-E22Hh/none-Hi-Kn010G3/L0213-k0 (antibody, V domains shown)
VH: QVQLVESGGGLVQPGRSLRLSCAASGFTFSNAWMHWVRQAPGKGLEWVAQIKDKSQNYATYYAESVKGRFTISRADSKNSIYLQMNSLKTEDTAVYYCRYVHYSASYGVDAWGQGTTVTVSS
VL: DIVMTQSPLSLPVTPGEPASISCRSSQSPVHSNRNTYIHWYQQKPGQAPRLLIYKVSNRFRGVPDRFSGSGSGTDFTLKISRVEAEDVGVYYCGQGTQVPYTFGQGTKLEIK
notes: one-arm
Question: Which Kd does the source give for B7 here?
Answer: 20.1 nM

B8: TR01H040-E22Hh/none-Hi-Kn010G3/L0207-k0 (antibody, V domains shown)
VH: QVQLVESGGGLVQPGRSLRLSCAASGFTFSNAWMHWVRQAPGKGLEWVAQIKDKSQNYATYYAESVKGRFTISRADSKNSIYLQMNSLKTEDTAVYYCRYVHYSASYGVDAWGQGTTVTVSS
VL: DIVMTQSPLSLPVTPGEPASISCRSSQSPVHSNRNTYLHWYQQKPGQAPRLLIYKVSNRFRGVPDRFSGSGSGTDFTLKISRVEAEDVGVYYCYQGTQVPYTFGQGTKLEIK
notes: one-arm
Question: How did the Kd turn out when B8 was run?
Answer: 2.6 nM

B9: TR01H040-E22Hh/none-Hi-Kn010G3/L0224-k0 (antibody, V domains shown)
VH: QVQLVESGGGLVQPGRSLRLSCAASGFTFSNAWMHWVRQAPGKGLEWVAQIKDKSQNYATYYAESVKGRFTISRADSKNSIYLQMNSLKTEDTAVYYCRYVHYSASYGVDAWGQGTTVTVSS
VL: DIVMTQSPLSLPVTPGEPASISCRSSQSPVHSNRNTYIHWYQQKPGQAPRLLIYKVSNRFPGVPDRFSGSGSGTDFTLKISRVEAEDVGVYYCYQGTQVPYTFGQGTKLEIK
notes: one-arm
Question: B9 was tested. Which Kd did it give?
Answer: 5.06 nM

B10: TR01H040-E22Hh/none-Hi-Kn010G3/L0210-k0 (antibody, V domains shown)
VH: QVQLVESGGGLVQPGRSLRLSCAASGFTFSNAWMHWVRQAPGKGLEWVAQIKDKSQNYATYYAESVKGRFTISRADSKNSIYLQMNSLKTEDTAVYYCRYVHYSASYGVDAWGQGTTVTVSS
VL: DIVMTQSPLSLPVTPGEPASISCRSSQSPVHSNRWTYLHWYQQKPGQAPRLLIYKVSNRFSGVPDRFSGSGSGTDFTLKISRVEAEDVGVYYCYQGTQVPYTFGQGTKLEIK
notes: one-arm
Question: Which Kd does the source give for B10 here?
Answer: 5.06 nM

B11: TR01H040-E22Hh/none-Hi-Kn010G3/L0219-k0 (antibody, V domains shown)
VH: QVQLVESGGGLVQPGRSLRLSCAASGFTFSNAWMHWVRQAPGKGLEWVAQIKDKSQNYATYYAESVKGRFTISRADSKNSIYLQMNSLKTEDTAVYYCRYVHYSASYGVDAWGQGTTVTVSS
VL: DIVMTQSPLSLPVTPGEPASISCRSSQSLVHSNRNTYIHWYQQKPGQAPRLLIYKVSNRFRGVPDRFSGSGSGTDFTLKISRVEAEDVGVYYCGQGTQVPYTFGQGTKLEIK
notes: one-arm
Question: Which Kd does the source give for B11 here?
Answer: 39.4 nM

B12: TR01H040-E22Hh/none-Hi-Kn010G3/L0205-k0 (antibody, V domains shown)
VH: QVQLVESGGGLVQPGRSLRLSCAASGFTFSNAWMHWVRQAPGKGLEWVAQIKDKSQNYATYYAESVKGRFTISRADSKNSIYLQMNSLKTEDTAVYYCRYVHYSASYGVDAWGQGTTVTVSS
VL: DIVMTQSPLSLPVTPGEPASISCRSSQSPVHSNRNTYLHWYQQKPGQAPRLLIYKVSNRFWGVPDRFSGSGSGTDFTLKISRVEAEDVGVYYCGQGTQVPYTFGQGTKLEIK
notes: one-arm
Question: B12 was tested. Which Kd did it give?
Answer: 34.2 nM

B13: TR01H040-E22Hh/none-Hi-Kn010G3/L0220-k0 (antibody, V domains shown)
VH: QVQLVESGGGLVQPGRSLRLSCAASGFTFSNAWMHWVRQAPGKGLEWVAQIKDKSQNYATYYAESVKGRFTISRADSKNSIYLQMNSLKTEDTAVYYCRYVHYSASYGVDAWGQGTTVTVSS
VL: DIVMTQSPLSLPVTPGEPASISCRSSQPLVHSNRNTYLHWYQQKPGQAPRLLIYKVSNRFRGVPDRFSGSGSGTDFTLKISRVEAEDVGVYYCYQGTQVPYTFGQGTKLEIK
notes: one-arm
Question: For B13, which Kd is on record?
Answer: 9.15 nM

B14: TR01H040-E22Hh/none-Hi-Kn010G3/L0216-k0 (antibody, V domains shown)
VH: QVQLVESGGGLVQPGRSLRLSCAASGFTFSNAWMHWVRQAPGKGLEWVAQIKDKSQNYATYYAESVKGRFTISRADSKNSIYLQMNSLKTEDTAVYYCRYVHYSASYGVDAWGQGTTVTVSS
VL: DIVMTQSPLSLPVTPGEPASISCRSSQPLVHSNRNTYLHWYQQKPGQAPRLLIYKVSNRFRGVPDRFSGSGSGTDFTLKISRVEAEDVGVYYCGQGTQVPYTFGQGTKLEIK
notes: one-arm
Question: With B14 as the binder, how does the Kd read?
Answer: 25.3 nM

B15: TR01H040-E22Hh/none-Hi-Kn010G3/L0218-k0 (antibody, V domains shown)
VH: QVQLVESGGGLVQPGRSLRLSCAASGFTFSNAWMHWVRQAPGKGLEWVAQIKDKSQNYATYYAESVKGRFTISRADSKNSIYLQMNSLKTEDTAVYYCRYVHYSASYGVDAWGQGTTVTVSS
VL: DIVMTQSPLSLPVTPGEPASISCRSSQSLVHSNRNTYLHWYQQKPGQAPRLLIYKVSNRFRGVPDRFSGSGSGTDFTLKISRVEAEDVGVYYCYQGTQVPYTFGQGTKLEIK
notes: one-arm
Question: Which Kd does the source give for B15 here?
Answer: 8.2 nM
